Experimental data reported in US20030228675.

How the values were obtained:
[1] = molecular target: GST-hUpf1 1019-1118 (GST fusion protein containing the carboxyl-terminal region of hUpf1, amino acids 1019-1118) (UniProt Q92900)
[2] = tested on: GST-p53 1-70 (GST fusion protein containing the first 70 amino acids of p53)
[3] = tested on: GST-p53 1-70 (S15A)

| Substance | phosphorylation in immune complex kinase assay [1] | specific kinase activity in immune complex kinase assay [2] | phosphorylation in immune complex kinase assay, compared with GST-hUpf1 1019-1118 [2] | specific kinase activity (ratio of 32P incorporation into substrate to level of HA-tagged protein kinase), relative to ATMWT [2] | phosphorylation in immune complex kinase assay [3] |
| --- | --- | --- | --- | --- | --- |
| HA-ATMWT (HA-tagged wild-type ATM) | this substrate was phosphorylated by both ATM and ATX, with the latter protein kinase showing the higher specific catalytic activity | the specific kinase activity of HA-ATXWT towards GST-p531-70 was significantly higher than that of HA-ATM |  |  |  |
| HA-ATXWT (HA-tagged wild-type long ATX) | this substrate was phosphorylated by both ATM and ATX, with the latter protein kinase showing the higher specific catalytic activity |  | GST-p531-70 was more avidly phosphorylated by ATX than was the GST-hUpf11019-1118 substrate | the specific kinase activity of ATXWT was approximately 3.5-fold higher than that of ATMWT | phosphorylation of GST-p531-70 by ATXWT was nearly abolished by substitution of the Ser-15 residue in p53 with Ala |
